Assay results as given in publication PMC8608799, “The main oxidative inactivation pathway of the plant hormone auxin” (Nature Communications, 2021).

Legend:
[1] = substrate: O=C(O)CC[C@H](NC(=O)Cc1c[nH]c2ccccc12)C(=O)O; test: HPLC of oxidised product, Michaelis-Menten; format: biochemical, Arabidopsis thaliana; details: 0.5 mM 2-oxoglutarate, 2 μM Fe(II), 5 mM ascorbate, 50 mM potassium phosphate pH 7.2, 30 °C
[2] = substrate: O=C(O)C[C@H](NC(=O)Cc1c[nH]c2ccccc12)C(=O)O; test: HPLC of oxidised product, Michaelis-Menten; format: biochemical, Arabidopsis thaliana; details: 0.5 mM 2-oxoglutarate, 2 μM Fe(II), 5 mM ascorbate, 50 mM potassium phosphate pH 7.2, 30 °C

B1: AtDAO1 (Arabidopsis thaliana) (protein)
chain: MGELNGVIIPTIDLEEVSDKILNQKIREASERWGCFRVINHGVSLSLMAEMKKTVIDLFQRPYEVKVRNTDVLLGSGYRAPNEINPYYEALGLYDMASPHAVNTFCDQLEASADQREIMVKYAKAINGLATDLARKLAESYGLVETDFFKEWPSQFRINKYHFKPETVGKLGVQLHTDSGFLTILQDDENVGGLEAMDNSSGTFFPIDPLPNTLAINLGDMATIWSNGRLCNVKHRVQCKEATMRYSIASFLLGPMDTDLEPPSEFVDAEHPRLYKPISHEGVRNIRMTKKLHDGEALKLITHAGLDK
notes: full-length ORF in pCold I, N-terminal His tag kept, E. coli BL21, TALON purified
Km [1]: 9.4 µM
Km [2]: 13.5 µM
